Reference: patent publication US11584938B2, “Plant EPSPS mutant containing L195P and S247G mutations and encoding gene and use thereof” (GEVOTO LLC, priority 2017, dated 2023)
Where a chain is given by its changes, count along the chain named.

B1: T0: wild-type wheat EPSPS, amino acid sequence SEQ ID NO: 14; control (protein, listed as Triticum aestivum)
chain: MATSVAAPAAPAGAEEVVLQPIREISGAVQLPGSKSLSNRILLLSALSEGTTVVDNLLNSEDVHYMLEALEALGLSVEADKVAKRAVVVGCGGRFPVEKDAKEEVKLFLGNAGTAMRPLTAAVVAAGGNATYVLDGVPRMRERPIGDLVVGLQQLGADVDCFLGTNCPPVRINGKGGLPGGKVKLSGSISSQYLSSLLMAAPLALEDVEIEIIDKLISVPYVEMTLKLMEHFGVTAEHSDSWDRFYIKGGQKYKSPGNAYVEGDASSASYFLAGAAITGGTVTVEGCGTTSLQGDVKFAEVLEMMGAKVTWTDTSVTVTGPPRQPFGRKHLKAVDVNMNKMPDVAMTLAVVALFADGPTAIRDVASWRVKETERMVAIRTELTKLGATVEEGPDYCIITPPEKLNITAIDTYDDHRMAMAFSLAACAEVPVTIRDPGCTRKTFPNYFDVLSTFVKN
B2: G4: soybean EPSPS mutant, SEQ ID NO: 10, mutation S265(247)G (protein)
chain: MAAAEKPSTAPEIVLEPIKDISGTITLPGSKSLSNRILLLAALSEGTTVVDNLLYSEDIHYMLGALRTLGLRVEDDQTTKQAIVEGCGGLFPTIKESKDEINLFLGNAGTAMRPLTAAVVAAGGNASYVLDGVPRMRERPIGDLVAGLKQLGADVDCFLGTNCPPVRVNGKGGLPGGKVKLSGSVSSQYLTALLMAAPLALGDVEIEIVDKLISVPYVEMTLKLMERFGVSVEHSGDWDKFLVHGGQKYKSPGNAFVEGDASSAGYFLAGAAVTGGTITVNGCGTSSLQGDVKFAEVLEKMGAKVTWSENSVTVTGPPQDSSGQKVLQGIDVNMNKMPDVAMTLAVVALFANGQTTIRDVASWRVKETERMIAICTELRKLGATVEEGPDYCVITPPEKLNVTAIDTYDDHRMAMAFSLAACGDVPVTIKDPGCTRKTFPDYFEVLERFTRH
B3: G5: soybean EPSPS mutant, SEQ ID NO: 12, mutations S265(247)G and P114(101)S (protein)
chain: B2 chain with P114S

Test system: transgenic rice plants
Test: glyphosate resistance of the EPSPS mutant in transgenic rice plants sprayed with Roundup 41% ammonium glyphosate
Type: in vivo, rice (Nipponbare)
Description: A method for detecting the glyphosate resistance of G1 (SEQ ID NO: 4) provided in Example 1, G3 (SEQ ID NO: 8) provided in Example 2, G4 (SEQ ID NO: 10) provided in Example 3, the soybean EPSPS mutant G5 (SEQ ID NO: 12) provided in Example 4, T1 (SEQ ID NO: 16) provided in Example 5, T3 (SEQ ID NO: 20) provided in Example 6, T4 (SEQ ID NO: 22) provided in Example 7, T5 (SEQ ID NO: 24) provided in Example 8, the wheat EPSPS mutant T6 (SEQ ID NO: 26) provided in Example 9, R1 (SEQ ID NO: 30) provided in Example 10, R3 (SEQ ID NO: 34) provided in Example 11, R4 (SEQ ID NO: 36) provided in Example 12, R5 (SEQ ID NO: 38) provided in Example 13, and the rice EPSPS mutant R6 (SEQ ID NO: 40) provided in Example 14 in the transgenic rice is as follows:
The plasmids (containing the EPSPS mutation gene) of the monoclonal resistant bacteria of pADV5-EPSPS in Examples 1-7 were extracted by a conventional method, followed by double enzyme digestion by Pac1 and BstEII, the small fragments were collected, and then the small fragments were ligated by using T4 DNA ligase, to the pGVP1 vectors that had undergone the same double enzyme digestion, to obtain a pGVP1-EPSPS vector having a structure as shown in FIG. 23.
EHA105 (Agrobacterium tumefaciens) competent cells were transformed by the pGVP1-EPSPS vector, and single colonies were picked up to perform bacterial colony PCR detection to identify positive strains; then the positive strains were inoculated into 1 mL of YEP culture medium containing 50 μg·mL^−1 kanamycin and 50 μg·mL^−1 rifampin to propagate, and then preserved at −80° C., or used for subsequent experiment.
400 μl of bacterium containing the target gene vector preserved at −80° C. was added to a culture dish of solid culture media containing YEP+50 μg/mL rifampin+50 μg/mL kanamycin, and cultured in the dark at 28° C. for 24 hours, then this bacterium was added to an infection culture medium, and this bacterial solution was adjusted to OD=0.2 as an infection liquid.
Sterilization and pre-culturing: mature rice (Nipponbare) seeds were manually shelled, and full seeds without bacterial plaque were selected, and sterilized according to following steps: putting the seeds into a 50 ml sterile centrifuge tube, adding 70% alcohol for disinfection for 30 seconds, pouring out the alcohol, and cleaning the seeds once with sterile water; adding 10-20 ml of 2.6% sodium hypochlorite solution for soaking and sterilizing for 20 minutes, pouring out the sodium hypochlorite solution, and soaking and cleaning the seeds with sterile water for 6-7 times, 3 minutes each time.
Induction and subculturing: the seeds were put on sterile filter paper for drying, and mature embryos were put in an induction culture medium with 12 embryos in each dish; the culture dishes were sealed with a sealing film after the operation was finished, the mature embryos were cultured in the dark at 30° C. for 21-28 days, calluses were transferred into a fresh culture medium, and continuously cultured for about 7-14 days, and spherical calluses with a size of 1-2 mm were taken as infection receptors.
the calluses were inoculated into a centrifuge tube or a culture cup, the prepared Agrobacterium tumefaciens suspension liquid was added for infection for 10 minutes, wherein the calluses were shaken several times; the bacterial solution was poured out, the calluses were taken out, and placed on sterile filter paper to suck out the surface bacterial solution (about 30 minutes); and the calluses were put on sterile filter paper in a culture dish, and cultured in the dark at 25° C. for 2-3 days.
Recovery culturing: the calluses having undergone co-culturing were inoculated in a recovery culture medium, and cultured in the dark at 30° C. for 5-7 days. First round of screening: the calluses were transferred to screening culture media 1 (S1) and cultured in the dark at 30° C. for 14 days. […]

[1] = 1× dosage 1060 g/hectare glyphosate sprayed, recorded on 10th day
[2] = 2× dosage 2120 g/hectare sprayed to plants surviving 1×, recorded 10 days later
[3] = 5× dosage 5300 g/hectare sprayed to plants surviving 2×, recorded 10 days later
[4] = 20× dosage 21200 g/hectare sprayed to plants surviving 5×, recorded 10 days later

Molecule | %++&+++ (percentage of plant having medium and high glyphosate resistance to the total number of plants observed) [1] [%] | number of plants denoted by + (low glyphosate resistance) [1] | number of plants denoted by ++ (medium glyphosate resistance) [1] | number of plants denoted by +++ (high glyphosate resistance) [1] | number of plants denoted by − (no glyphosate resistance) [1] | glyphosate resistance / survival of the rice transformed by the EPSPS, in words (1× glyphosate dosage) | %++&+++ (percentage of plant having medium and high glyphosate resistance to the total number of plants observed) [2] [%] | number of plants denoted by + (low glyphosate resistance) [2] | number of plants denoted by ++ (medium glyphosate resistance) [2] | number of plants denoted by +++ (high glyphosate resistance) [2] | number of plants denoted by − (no glyphosate resistance) [2] | &++&+++ (percentage of plant having medium and high glyphosate resistance to the total number of plants observed) [3] [%] | number of plants denoted by + (low glyphosate resistance) [3] | number of plants denoted by ++ (medium glyphosate resistance) [3] | number of plants denoted by +++ (high glyphosate resistance) [3] | number of plants denoted by − (no glyphosate resistance) [3] | &++&+++ (percentage of plant having medium and high glyphosate resistance to the total number of plants observed) [4] [%] | number of plants denoted by + (low glyphosate resistance) [4] | number of plants denoted by ++ (medium glyphosate resistance) [4] | number of plants denoted by +++ (high glyphosate resistance) [4] | further results
B1 | 0.0 | 1 | 0 | 0 | 32 | had no resistance, one was seriously damaged, and all the others died | 0.0 | 0 | 0 | 0 | 33 | 0.0 | 0 | 0 | 0 | 33 | 0.0 | 0 | 0 | 0 | number of plants denoted by − (no glyphosate resistance) [4]: 33
B2 | 26.5 | 23 | 9 | 4 | 13 | obviously superior to that of the rice seedlings transformed by G0 | 2.0 | 25 | 01 | 0 | 25 | 0.0 | 7 | 0 | 0 | 44 | 0.0 | 0 | 0 | 0 | glyphosate resistance / survival of the rice transformed by the EPSPS, in words (2× glyphosate dosage): some of the transgenic rice seedlings transformed by G4 still survived; glyphosate resistance / survival of the rice transformed by the EPSPS, in words (5× glyphosate dosage): some of the transgenic rice seedlings transformed by G4 still survived; number of plants denoted by − (no glyphosate resistance) [4]: 51
B3 | 69.1 | 14 | 18 | 49 | 16 | had certain resistance to glyphosate | 34.0 | 43 | 23 | 10 | 21 | 7.2 | 53 | 6 | 1 | 37 | 0.0 | 24 | 0 | 0 | glyphosate resistance / survival of the rice transformed by the EPSPS, in words (2× glyphosate dosage): some of the rice seedlings containing the soybean EPSPS mutants G3 and G5 still survived; glyphosate resistance / survival of the rice transformed by the EPSPS, in words (5× glyphosate dosage): some of the rice seedlings containing the soybean EPSPS mutants G3 and G5 still survived; number of plants denoted by − (no glyphosate resistance) [4]: 73; glyphosate resistance / survival of the rice transformed by the EPSPS, in words (20× glyphosate dosage): some of the rice seedlings containing the soybean EPSPS mutants G3 and G5 still survived
